The target in the test is His-tagged CNA. As to the kind of experiment: SPR. (In general: SPR reads the build-up and loss of mass on a sensor chip optically.)

No end group written: not given here. *: point of attachment. Biotin = O=C1N[C@H]2[C@H](CS[C@H]2CCCCC(=O)*)N1

Regarding Biotin-AAAMAGFPPEITVTPPTP [CABIN1-L-1], the Kd (usually a measure of binding affinity in units of concentration) amounted to 512 nM.

These data come from patent US20240376163A1 (published 2024).
